How the values were obtained:
CD147 = biological target: T1, CD147; test: flow cytometry, HEK293-CD147 cells
T1 construct: also called HEK293-CD147

TSPAN12-FLAG [1] = biological target: T2, TSPAN12-FLAG (UniProt O95859 1-305); test: flow cytometry, HEK293-TSPAN12 cells
T2 construct: whole, on cells; order of protein and tag unknown; also called HEK293-TSPAN12; not shown: FLAG tag
T2 sequence (looked up): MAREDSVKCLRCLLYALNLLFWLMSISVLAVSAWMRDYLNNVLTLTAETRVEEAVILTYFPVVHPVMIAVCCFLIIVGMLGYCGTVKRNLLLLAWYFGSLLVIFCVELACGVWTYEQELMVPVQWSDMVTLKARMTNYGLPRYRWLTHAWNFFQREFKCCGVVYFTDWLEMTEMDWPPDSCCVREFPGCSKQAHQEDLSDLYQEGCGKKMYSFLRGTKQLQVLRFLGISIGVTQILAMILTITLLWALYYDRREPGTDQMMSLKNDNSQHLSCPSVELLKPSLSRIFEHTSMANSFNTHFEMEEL
Text: (§1) After that, HEK293 cells were transfected with commercial MMP16 (protein information can be found under Uniprot P51512), CD40LG (protein information can be found under Uniprot P29965), CD147 (protein information can be found under Uniprot P35612), TSPAN4 (protein information can be found under Uniprot 014817), and TSPAN12 (protein information can be found under Uniprot 095859) plasmids for further verification of the binding of PR005565, PR006275 and PR006276 to these proteins. […] However, the binding values of PR005565, PR006275 and PR006276 to MMP16, CD40LG, CD147, TSPAN4 and TSPAN12 after transfection of HEK293 cells were all consistent with the signal values of HEK293 cells themselves. Thus, PR005565, PR006275 and PR006276 had no non-specific binding to MMP16, CD40LG, CD147, TSPAN4 and TSPAN12 proteins (see Table 50).

CD40LG = biological target: T3, CD40LG (UniProt P29965 1-261); test: flow cytometry, transfected HEK293 cells
T3 construct: whole, on cells; also called HEK293-CD40LG
T3 sequence (looked up): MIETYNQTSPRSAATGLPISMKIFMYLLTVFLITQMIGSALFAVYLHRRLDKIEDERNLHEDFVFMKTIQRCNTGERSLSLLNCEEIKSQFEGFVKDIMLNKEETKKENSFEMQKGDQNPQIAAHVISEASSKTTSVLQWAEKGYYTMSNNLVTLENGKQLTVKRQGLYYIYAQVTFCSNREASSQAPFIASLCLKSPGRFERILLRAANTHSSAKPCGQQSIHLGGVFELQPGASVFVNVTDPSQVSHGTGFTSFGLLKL
Text: as §1

MMP16 = biological target: T4, MMP16 (UniProt P51512 120-607); test: flow cytometry, transfected HEK293 cells
T4 construct: whole, on cells; also called HEK293-MMP16
T4 sequence (P51512 120-607): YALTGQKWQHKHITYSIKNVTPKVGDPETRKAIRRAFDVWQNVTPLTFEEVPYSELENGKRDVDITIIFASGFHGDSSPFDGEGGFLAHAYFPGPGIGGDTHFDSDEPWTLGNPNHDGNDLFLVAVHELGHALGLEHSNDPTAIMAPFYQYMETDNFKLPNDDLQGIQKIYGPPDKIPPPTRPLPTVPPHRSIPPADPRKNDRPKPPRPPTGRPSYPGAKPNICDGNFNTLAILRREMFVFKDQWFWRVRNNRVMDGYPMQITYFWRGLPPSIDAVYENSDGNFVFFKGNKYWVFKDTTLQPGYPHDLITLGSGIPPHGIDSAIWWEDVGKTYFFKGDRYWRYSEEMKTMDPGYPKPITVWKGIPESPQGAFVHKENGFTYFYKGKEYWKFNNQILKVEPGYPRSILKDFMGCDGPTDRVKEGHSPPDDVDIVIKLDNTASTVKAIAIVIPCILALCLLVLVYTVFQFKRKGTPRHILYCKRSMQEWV
Text: as §1

TSPAN4-FLAG [2] = biological target: T5, TSPAN4-FLAG (UniProt O14817 1-238, limits assumed); test: flow cytometry, transfected HEK293 cells
T5 construct: whole, on cells; order of protein and tag unknown; also called HEK293-TSPAN4; not shown: FLAG tag
T5 sequence (looked up): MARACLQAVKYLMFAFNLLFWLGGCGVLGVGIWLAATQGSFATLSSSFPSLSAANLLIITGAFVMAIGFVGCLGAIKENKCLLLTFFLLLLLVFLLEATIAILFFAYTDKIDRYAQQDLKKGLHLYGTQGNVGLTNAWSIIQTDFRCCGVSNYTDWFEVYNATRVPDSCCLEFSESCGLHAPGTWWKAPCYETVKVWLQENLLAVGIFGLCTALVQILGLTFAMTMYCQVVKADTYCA
Text: as §1

TSPAN12-FLAG [3] = biological target: T2, TSPAN12-FLAG; test: flow cytometry, transfected HEK293 cells
Text: as §1

cynomolgus monkey CCR8 = biological target: T6, cynomolgus monkey CCR8 (cynomolgus monkey, UniProt G7NYJ2 1-355); test: KinExA, cell line overexpressing monkey CCR8; monkey CCR8 cell line
T6 construct: whole, on cells; also called CynoCCR8
T6 sequence (G7NYJ2 entry or part of it): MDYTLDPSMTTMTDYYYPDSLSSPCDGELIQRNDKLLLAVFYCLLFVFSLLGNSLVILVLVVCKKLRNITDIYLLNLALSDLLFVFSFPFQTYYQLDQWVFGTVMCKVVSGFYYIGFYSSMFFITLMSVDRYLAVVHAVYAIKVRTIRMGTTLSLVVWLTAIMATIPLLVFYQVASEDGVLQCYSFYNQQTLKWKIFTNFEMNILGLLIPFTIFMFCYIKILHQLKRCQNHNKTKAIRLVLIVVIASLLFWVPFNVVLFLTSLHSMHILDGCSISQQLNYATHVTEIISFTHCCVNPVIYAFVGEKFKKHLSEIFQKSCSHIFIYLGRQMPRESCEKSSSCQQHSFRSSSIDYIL
Description: To 200 mg of PMMA hard beads was added 30 μg of Goat Anti-Human IgG Fc antibody, and the mixture was supplemented with a coating solution to 1.0 mL, with a buffer composition of 1×PBS, pH7.4, to ensure that the beads were completely suspended in the solution. After being spun at room temperature for 2 h, the beads were either allowed to settle naturally or centrifuged briefly at low speed, and the supernatant was removed. 1 mL of blocking buffer (1×PBS, pH7.4, containing 10 mg/mL BSA) was added to ensure that the beads were resuspended in the blocking solution, and the beads were spun at room temperature for 1 h. An appropriate concentration of PR005565, PR006155 or PR006166 was used as the 100% signal value, and PBS blank was used as the background value. The net signal values were detected using 0.5 μg/mL Alexa Fluor® 647 Goat Anti-Human IgG. The cell line overexpressing human or monkey CCR8 was collected by centrifugation at 1500 g for 5 min, washed 2 times with 2 PBS and centrifuged at 350 g. The cells were collected in a 1.5 mL centrifuge tube. 10 mL of 0.2 nM PR005565, PR006155 or PR006166 solution was prepared. The total cells were supplemented with 0.2 nM PR005565, PR006155 or PR006166 solution to 0.82 mL, and diluted in a 2-fold gradient with 0.2 nM PR005565, PR006155 or PR006166 as a buffer. […]

TSPAN4-FLAG [4] = biological target: T5, TSPAN4-FLAG; test: flow cytometry, HEK293-TSPAN4 cells

B1: PR005565 (antibody, human IgG1, kappa)
heavy: not shown
light: DIVMTQSPLSLPVTLGQPASISCRSSKSLLHSNAKIYLYWFQQRPGQSPRLLIYRMSNLASGVPDRFSGSGSGTDFTLKISRVEAEDVGVYYCMQHLEYPLTFGQGTKLEIKRTVAAPSVFIFPPSDEQLKSGTASVVCLLNNFYPREAKVQWKVDNALQSGNSQESVTEQDSKDSTYSLSSTLTLSKADYEKHKVYACEVTHQGLSSPVTKSFNRGEC
notes: IgG1 constant region; same VH/VL as PR004666
MFI (CD147): 212 | MFI (TSPAN12-FLAG [1]): 219 | binding result (CD40LG): no binding | binding result (MMP16): no binding | binding result (TSPAN4-FLAG [2]): no binding | binding result (TSPAN12-FLAG [3]): no binding | Kd (cynomolgus monkey CCR8): 0.177 nM | MFI (TSPAN4-FLAG [4]): 207

Source: US20240132603A1 (HARBOUR BIOMED US, published 2024)
